# Measured values from patent publication US9333268B2, “Methods of treatment with arginine deiminase” (Polaris Group, priority 2012, dated 2016).
# B1: ADI-PEG 20: arginine deiminase (ADI) formulated with PEG of 20,000 m.w. (protein)
# chain: MSVFDSKFNGIHVYSEIGELETVLVHEPGREIDYITPARLDELLFSAILESHDARKEHQSFVKIMKDRGINVVELTDLVAETYDLASKAAKEEFIETFLEETVPVLTEANKEAVRAFLLSKPTHEMVEFMMSGITKYELGVESENELIVDPMPNLYFTRDPFASVGNGVTIHFMRYIVRRRETLFARFVFRNHPKLVKTPWYYDPAMKMSIEGGDVFIYNNETLVVGVSERTDLDTITLLAKNIKANKEVEFKRIVAINVPKWTNLMHLDTWLTMLDKNKFLYSPIANDVFKFWDYDLVNGGAEPQPQLNGLPLDKLLASIINKEPVLIPIGGAGATEMEIARETNFDGTNYLAIKPGLVIGYDRNEKTNAALKAAGITVLPFHGNQLSLGMGNARCMSMPLSRKDVKW
# What was measured:
# [1] = tested on: SK-LC-13 xenografts; assay: Moderately sized SK-LC-13 SCLC xenografts in BALB/c-nude mice; assay type: in vivo
# Experimental: (§1) The activity of ADI-PEG 20 was also assessed in mice bearing ASS-positive NCI-H69 SCLC xenografts. Small cell lung cancer xenografts were established in female BALB/c-nude mice, 3-4 weeks of age weighing ˜20 g (Charles River Labs, Wilmington, Mass., USA). To establish the tumors, 10×10^6 cells in media were mixed 1:1 with Matrigel High Concentration (BD Biosciences) and injected subcutaneously in the abdominal area of the mice. Tumor growth was regularly measured and tumor volume calculated using the formula (TV=(length×width^2)/2). All animal studies were approved by the MSKCC Institutional Animal Care and Use Committee. Mice were euthanized when tumors reached an approximate volume of 1,000 mm^3.
# The anti-tumor efficacy of ADI-PEG 20 was simultaneously assessed in mice bearing either moderate or large SK-LC-13 SCLC xenografts. In the first study, treatment was initiated once tumors had reached an average size of 125 mm^3. In the large xenograft study, treatment was initiated once tumors had reached an average size of 500 mm^3. Arginine deiminase-PEG20 was administered at doses of 1, 2 and 5 IU per animal once every 5 days for 20 days (five doses). To assess the effect of sustained dosing, further groups (n=5) at all dose levels received continued administration of ADI-PEG 20 every 5 days until tumors progressed to the 1,000 mm^3 size limit. Additionally, the efficacy of ADI-PEG 20 was assessed in mice bearing ASS-positive NCI-H69 xenografts. Here, mice received five doses of 2 IU ADI-PEG 20 for 20 days once tumor had reached an average size of 150 mm^3. Arginine deiminase-PEG20 was administered by intraperitoneal injection in all studies. The specific activity of ADI-PEG 20 used in these studies is 9 IU mg^−1 of protein. Thus, 1 IU of ADI-PEG 20 per 20 g mouse is equivalent to 160 IU m^−2.
# Efficacy of ADI-PEG 20 treatment in vivo was assessed by comparing means of control and treatment groups using unpaired two-tailed t-tests at the termination of control groups using GraphPad Prism (Version 5.0, GraphPad Software Inc., La Jolla, Calif., USA).
# [2] = tested on: NCI-H69 xenografts; assay: ASS-positive NCI-H69 SCLC xenografts in BALB/c-nude mice; assay type: in vivo; settings: five doses of 2 IU over 20 days, intraperitoneal
# Experimental: as §1
# The anti-tumor efficacy of ADI-PEG 20 was simultaneously assessed in mice bearing either moderate or large SK-LC-13 SCLC xenografts. In the first study, treatment was initiated once tumors had reached an average size of 125 mm^3. In the large xenograft study, treatment was initiated once tumors had reached an average size of 500 mm^3. Arginine deiminase-PEG20 was administered at doses of 1, 2 and 5 IU per animal once every 5 days for 20 days (five doses). […] Additionally, the efficacy of ADI-PEG 20 was assessed in mice bearing ASS-positive NCI-H69 xenografts. […]
# [3] = tested on: L-arginine and L-citrulline; assay: Serum arginine and citrulline by HPLC; assay type: in vivo, mice
# Experimental: In order to determine the effect of ADI-PEG 20 treatment on systemic arginine levels, mice sera were analyzed using high-performance liquid chromatography (HPLC). L-arginine and L-citrulline were resolved with a Pickering Laboratories PCX 5200 post-column derivatization instrument (Pickering Laboratories, Mountain View, Calif., USA) at 39° C. reaction temperature and a fluorescence detector. […] Total ADI-PEG 20 levels were measured by ELISA, as described previously (Holtsberg et al, J Control Release 80(1-3):259-271, 2002).
# [4] = tested on: SK-LC-13 cells; assay: FACS analysis of apoptosis by sub-G1 DNA content (propidium iodide); assay type: cell-based, human
# Experimental: Apoptosis was measured by FACS of propidium-iodide-stained cells as detailed by Riccardi et al (Riccardi and Nicoletti, Nat Protoc 1(3):1458-1461, 2006). Cells were plated in 24-well plates and treated with ADI-PEG 20 for […]. Cells were then harvested, washed and fixed in 70% ethanol. DNA was then stained using 20 μg ml^−1 propidium iodide containing 10 μgml^−1 DNAse-free RNAse A (Sigma-Aldrich). Cells were then read on a BD FACSCalibur (BD Biosciences) and analyzed using Flow Jo Software (Tree Star, Ashland, Oreg., USA).
# In order to determine the possible mechanism of the antiproliferative effects of ADI-PEG 20 a FACS analysis of apoptosis by sub-G1 DNA content was performed. Cells were treated for 72 h before the analysis was performed.
molecule,measurement,setting,value
B1,tumor growth relative to control mice,"[1]; 1, 2 and 5 IU per animal every 5 days, intraperitoneal",significant and dose-dependent reduction in tumor growth
same,"mean tumor volumes, short vs continued dosing",[1]; 1 IU (P=0.251),not significantly different
same,"mean tumor volumes, short vs continued dosing",[1]; 2 IU (P=0.084),not significantly different
same,"tumor size, continued dosing vs dosing for only 20 days","[1]; 5 IU every 5 days, at completion of the study (P=0.0063)",significantly smaller
same,mean tumor volume of control mice compared with ADI-PEG 20-treated groups,"[1]; day 33, regardless of dose or schedule (P>0.0001)",significantly larger
same,tumor growth,[2],did not produce any effect on tumor growth
same,citrulline levels,"[3]; 1, 2, 5 IU",rose in a dose-dependent relationship to arginine
same,serum arginine after end of dosing,[3]; 20 days after the last dose (day 40),returned to normal levels
same,citrulline levels,"[3]; continued dosing, 2 and 5 IU",Little increase in citrulline levels
same,arginine serum levels,"[3]; extended dosing, 1 IU",below the limits of detection
same,citrulline levels,"[3]; extended dosing, 1 IU",increased with extended dosing
same,serum arginine,[3]; short course of treatment,only temporarily depleted serum arginine
same,cells in apoptosis (sub-G1 DNA content),"[4]; 1.0 mIU ml^−1, 72 h",~6%
same,cells in apoptosis (sub-G1 DNA content),"[4]; 10 mIU ml^−1, 72 h",~16%
